# B1: E. coli MraY (EcMraY), wild type (enzyme)
# chain: MLVWLAEHLVKYYSGFNVFSYLTFRAIVSLLTALFISLWMGPRMIAHLQKLSFGQVVRNDGPESHFSKRGTPTMGGIMILTAIVISVLLWAYPSNPYVWCVLVVLVGYGVIGFVDDYRKVVRKDTKGLIARWKYFWMSVIALGVAFALYLAGKDTPATQLVVPFFKDVMPQLGLFYILLAYFVIVGTGNAVNLTDGLDGLAIMPTVFVAGGFALVAWATGNMNFASYLHIPYLRHAGELVIVCTAIVGAGLGFLWFNTYPAQVFMGDVGSLALGGALGIIAVLLRQEFLLVIMGGVFVVETLSVILQVGSFKLRGQRIFRMAPIHHHYELKGWPEPRVIVRFWIISLMLVLIGLATLKVR
# Target: the molecule itself
# Experiment: cryo-EM structure
protein,measurement,value
B1,stoichiometry N,2

# Reference: PMC12747129 (Science (New York, N.Y.), 2023)
